This is an account of results in patent US20060223096A1 (GLYCART BIOTECHNOLOGY, published 2006).

Sequences and labels used below:
B1: M-HHB heavy chain coexpressed with murine 225.28S light chain (mVL) (antibody, V domains shown)
VH: EVQLVESGGGLVKPGGSLRLSCAASGFTFSNYWMNWVRQAPGKGLEWVGEIRLKSNNFGRYYAESVKGRFTISRDDSKNTLYLQMNSLKTEDTAVYYCTSYGNYVGHYFDHWGQGTTVTVSS
VL: DIELTQSPKFMSTSVGDRVSVTCKASQNVDTNVAWYQQKPGQSPEPLLFSASYRYTGVPDRFTGSGSGTDFTLTISNVQSEDLAEYFCQQYNSYPLTFGGGTKLEIK
notes: also called M-HHB/mVL
B2: humanized M-HLG/M-KV9 construct of the 225.28S antibody (antibody, V domains shown)
VH: EVQLVESGGGLVQPGGSLRLSCAASGFTFSNYWMNWVRQAPGKGLEWVAEIRLKSNNFGRYYAASVKGRFTISRDDSKNTLYLQMNSLKTEDTAVYYCTTYGNYVGHYFDHWGQGTTVTVSS
VL: DIQLTQSPSFLSASVGDRVTITCKASQNVDTNVAWYQQKPGQAPRPLIYSASYRYTGVPSRFSGSGSGTEFTLTISSLQPEDFATYYCQQYNSYPLTFGGGTKVEIKR
notes: also called M-KV9 together with M-HLG
B3: M-KV5 light chain paired with the M-HHB heavy chain (antibody, V domains shown)
VH: EVQLVESGGGLVKPGGSLRLSCAASGFTFSNYWMNWVRQAPGKGLEWVGEIRLKSNNFGRYYAESVKGRFTISRDDSKNTLYLQMNSLKTEDTAVYYCTSYGNYVGHYFDHWGQGTTVTVSS
VL: DIQLTQSPSFLSASVGDRVTITCKASQNVDTNVAWYLQKPGQSPQLLIYSASYRYTGVPSRFSGSGSGTEFTLTISSLQPEDFATYYCQQYNSYPLTFGGGTKVEIKR
notes: also called M-HHB/M-KV5
B4: M-HHA heavy chain coexpressed with murine 225.28S light chain (mVL) (antibody, V domains shown)
VH: EVQLVESGGGLVKPGGSLRLSCAASGFTFSNYWMNWVRQAPGKGLEWVGEIRLKSNNFGRYYAASVKGRFTISRDDSKNTLYLQMNSLKTEDTAVYYCTTYGNYVGHYFDHWGQGTTVTVSS
VL: DIELTQSPKFMSTSVGDRVSVTCKASQNVDTNVAWYQQKPGQSPEPLLFSASYRYTGVPDRFTGSGSGTDFTLTISNVQSEDLAEYFCQQYNSYPLTFGGGTKLEIK
notes: also called M-HHA/mVL
B5: M-KV9 light chain combined with the M-HHB heavy chain (antibody, V domains shown)
VH: EVQLVESGGGLVKPGGSLRLSCAASGFTFSNYWMNWVRQAPGKGLEWVGEIRLKSNNFGRYYAESVKGRFTISRDDSKNTLYLQMNSLKTEDTAVYYCTSYGNYVGHYFDHWGQGTTVTVSS
VL: DIQLTQSPSFLSASVGDRVTITCKASQNVDTNVAWYQQKPGQAPRPLIYSASYRYTGVPSRFSGSGSGTEFTLTISSLQPEDFATYYCQQYNSYPLTFGGGTKVEIKR
notes: also called M-KV9 with M-HHB; M-HHB/M-KV9
B6: M-HLG heavy chain paired with the light chain construct M-KV4 (antibody, V domains shown)
VH: EVQLVESGGGLVQPGGSLRLSCAASGFTFSNYWMNWVRQAPGKGLEWVAEIRLKSNNFGRYYAASVKGRFTISRDDSKNTLYLQMNSLKTEDTAVYYCTTYGNYVGHYFDHWGQGTTVTVSS
VL: DIQLTQSPSFLSASVGDRVTITCKASQNVDTNVAWYQQKPGKAPEPLLFSASYRYTGVPSRFSGSGSGTEFTLTISSLQPEDFATYYCQQYNSYPLTFGGGTKVEIKR
notes: also called M-HLG/M-KV4
B7: M-HHC heavy chain coexpressed with murine 225.28S light chain (mVL) (antibody, V domains shown)
VH: EVQLVESGGGLVKPGGSLRLSCAASGFTFSNYWMNWVRQAPGKGLEWVANIRLKSNNFGRYYAESVKGRFTISRDDSKNTLYLQMNSLKTEDTAVYYCTSYGNYVGHYFDHWGQGTTVTVSS
VL: DIELTQSPKFMSTSVGDRVSVTCKASQNVDTNVAWYQQKPGQSPEPLLFSASYRYTGVPDRFTGSGSGTDFTLTISNVQSEDLAEYFCQQYNSYPLTFGGGTKLEIK
notes: also called M-HHC/mVL
B8: M-KV12 light chain combined with the M-HLG heavy chain (antibody, V domains shown)
VH: EVQLVESGGGLVQPGGSLRLSCAASGFTFSNYWMNWVRQAPGKGLEWVAEIRLKSNNFGRYYAASVKGRFTISRDDSKNTLYLQMNSLKTEDTAVYYCTTYGNYVGHYFDHWGQGTTVTVSS
VL: DIQLTQSPSFLSASVGDRVTITCKASQNVDTNVAWYQQKPGQAPRPLIYSASYLQSGVPSRFSGSGSGTEFTLTISSLQPEDFATYYCQQYNSYPLTFGGGTKVEIKR
notes: also called M-HLG/M-KV12
B9: M-KV10 light chain combined with the M-HLG heavy chain (antibody, V domains shown)
VH: EVQLVESGGGLVQPGGSLRLSCAASGFTFSNYWMNWVRQAPGKGLEWVAEIRLKSNNFGRYYAASVKGRFTISRDDSKNTLYLQMNSLKTEDTAVYYCTTYGNYVGHYFDHWGQGTTVTVSS
VL: DIQLTQSPSFLSASVGDRVTITCRASQNVDTNLAWYQQKPGQAPRPLIYSASYRYTGVPSRFSGSGSGTEFTLTISSLQPEDFATYYCQQYNSYPLTFGGGTKVEIKR
notes: also called M-HLG/M-KV10
B10: M-KV4 light chain paired with the M-HHB heavy chain (antibody, V domains shown)
VH: EVQLVESGGGLVKPGGSLRLSCAASGFTFSNYWMNWVRQAPGKGLEWVGEIRLKSNNFGRYYAESVKGRFTISRDDSKNTLYLQMNSLKTEDTAVYYCTSYGNYVGHYFDHWGQGTTVTVSS
VL: DIQLTQSPSFLSASVGDRVTITCKASQNVDTNVAWYQQKPGKAPEPLLFSASYRYTGVPSRFSGSGSGTEFTLTISSLQPEDFATYYCQQYNSYPLTFGGGTKVEIKR
notes: also called M-HHB/M-KV4
B11: M-KV7 light chain paired with the M-HHB heavy chain (antibody, V domains shown)
VH: EVQLVESGGGLVKPGGSLRLSCAASGFTFSNYWMNWVRQAPGKGLEWVGEIRLKSNNFGRYYAESVKGRFTISRDDSKNTLYLQMNSLKTEDTAVYYCTSYGNYVGHYFDHWGQGTTVTVSS
VL: DIQLTQSPSFLSASVGDRVTITCKASQNVDTNVAWYQQKPGKAPKPLIYSASYRYTGVPSRFSGSGSGTEFTLTISSLQPEDFATYYCQQYNSYPLTFGGGTKVEIKR
notes: also called M-KV7 antibody; M-HHB/M-KV7
B12: M-KV6 light chain paired with the M-HHB heavy chain (antibody, V domains shown)
VH: EVQLVESGGGLVKPGGSLRLSCAASGFTFSNYWMNWVRQAPGKGLEWVGEIRLKSNNFGRYYAESVKGRFTISRDDSKNTLYLQMNSLKTEDTAVYYCTSYGNYVGHYFDHWGQGTTVTVSS
VL: DIQLTQSPSFLSASVGDRVTITCKASQNVDTNVAWFQQRPGQSPRRLIYSASYRYTGVPSRFSGSGSGTEFTLTISSLQPEDFATYYCQQYNSYPLTFGGGTKVEIKR
notes: also called M-HHB/M-KV6
B13: M-HLE1 heavy chain paired with the light chain construct M-KV4 (antibody, V domains shown)
VH: EVQLVESGGGLVKPGGSLRLSCAASGFTFSNYWMNWVRQAPGKGLEWVGEIRLKSNNFGRYYAQKFQERVTITRDMSTSTAYMELSSLRSEDTAVYYCAAYGNYVGHYFDHWGQGTTVTVSS
VL: DIQLTQSPSFLSASVGDRVTITCKASQNVDTNVAWYQQKPGKAPEPLLFSASYRYTGVPSRFSGSGSGTEFTLTISSLQPEDFATYYCQQYNSYPLTFGGGTKVEIKR
notes: also called M-HLE1/M-KV4
B14: M-HLC heavy chain combined with the light chain construct M-KV3 (antibody, V domains shown)
VH: QVQLVQSGAEVKKPGASVKVSCKASGYTFTNYWMNWVRQAPGQGLEWMGEIRLKSNNFGRYYAESVKGRVTITRDTSMSTAYMELSSLRSEDTAVYYCAAYGNYVGHYFDHWGQGTTVTVSS
VL: DIQLTQSPSFLSASVGDRVTVTCKASQNVDTNVAWYQQKPGKAPEPLLFSASYRYTGVPSRFSGSGSGTEFTLTISSLQPEDFATYYCQQYNSYPLTFGGGTKVEIKR
notes: also called M-HLC/M-KV3
B15: M-HLA heavy chain combined with the light chain construct M-KV3 (antibody, V domains shown)
VH: QVQLVQSGAEVKKPGASVKVSCKASGYTFTNYWMNWVRQAPGQGLEWMGEIRLKSNNFGRYYAQKFQGRVTMTRDTSTSTVYMELSSLRSEDTAVYYCARYGNYVGHYFDHWGQGTTVTVSS
VL: DIQLTQSPSFLSASVGDRVTVTCKASQNVDTNVAWYQQKPGKAPEPLLFSASYRYTGVPSRFSGSGSGTEFTLTISSLQPEDFATYYCQQYNSYPLTFGGGTKVEIKR
notes: also called M-HLA/M-KV3
B16: M-HLE2 heavy chain paired with the light chain construct M-KV4 (antibody, V domains shown)
VH: EVQLVESGGGLVKPGGSLRLSCAASGFTFSNYWMNWVRQAPGKGLEWVGEIRLKSNNFGRYYAESVKGRVTITRDMSTSTAYMELSSLRSEDTAVYYCAAYGNYVGHYFDHWGQGTTVTVSS
VL: DIQLTQSPSFLSASVGDRVTITCKASQNVDTNVAWYQQKPGKAPEPLLFSASYRYTGVPSRFSGSGSGTEFTLTISSLQPEDFATYYCQQYNSYPLTFGGGTKVEIKR
notes: also called M-HLE2/M-KV4
B17: M-KV3 light chain coexpressed with murine 225.28S heavy chain (mVH) (antibody, V domains shown)
VH: QVKLQQSGGGLVQPGGSMKLSCVVSGFTFSNYWMNWVRQSPEKGLEWIAEIRLKSNNFGRYYAESVKGRFTISRDDSKSSAYLQMINLRAEDTGIYYCTSYGNYVGHYFDHWGQGTTVTVSS
VL: DIQLTQSPSFLSASVGDRVTVTCKASQNVDTNVAWYQQKPGKAPEPLLFSASYRYTGVPSRFSGSGSGTEFTLTISSLQPEDFATYYCQQYNSYPLTFGGGTKVEIKR
notes: The VL entry ends in KRT; also called mVH/M-KV3
B18: M-HLD heavy chain paired with the M-KV9 light chain (antibody, V domains shown)
VH: QVQLVQSGAEVKKPGASVKVSCKASGFTFSNYWMNWVRQAPGQGLEWMGEIRLKSNNFGRYYAESVKGRVTITRDTSMSTAYMELSSLRSEDTAVYYCAAYGNYVGHYFDHWGQGTTVTVSS
VL: DIQLTQSPSFLSASVGDRVTITCKASQNVDTNVAWYQQKPGQAPRPLIYSASYRYTGVPSRFSGSGSGTEFTLTISSLQPEDFATYYCQQYNSYPLTFGGGTKVEIKR
notes: also called M-HLD/M-KV9
B19: M-HLB heavy chain combined with the light chain construct M-KV3 (antibody, V domains shown)
VH: QVQLVQSGAEVKKPGASVKVSCKASGYTFTNYWMNWVRQAPGQGLEWMGEIRLKSNNFGRYYAQKFQGRVTITRDTSMSTAYMELSSLRSEDTAVYYCAAYGNYVGHYFDHWGQGTTVTVSS
VL: DIQLTQSPSFLSASVGDRVTVTCKASQNVDTNVAWYQQKPGKAPEPLLFSASYRYTGVPSRFSGSGSGTEFTLTISSLQPEDFATYYCQQYNSYPLTFGGGTKVEIKR
notes: also called M-HLB/M-KV3

T1 sequence (Q6UVK1 30-2322): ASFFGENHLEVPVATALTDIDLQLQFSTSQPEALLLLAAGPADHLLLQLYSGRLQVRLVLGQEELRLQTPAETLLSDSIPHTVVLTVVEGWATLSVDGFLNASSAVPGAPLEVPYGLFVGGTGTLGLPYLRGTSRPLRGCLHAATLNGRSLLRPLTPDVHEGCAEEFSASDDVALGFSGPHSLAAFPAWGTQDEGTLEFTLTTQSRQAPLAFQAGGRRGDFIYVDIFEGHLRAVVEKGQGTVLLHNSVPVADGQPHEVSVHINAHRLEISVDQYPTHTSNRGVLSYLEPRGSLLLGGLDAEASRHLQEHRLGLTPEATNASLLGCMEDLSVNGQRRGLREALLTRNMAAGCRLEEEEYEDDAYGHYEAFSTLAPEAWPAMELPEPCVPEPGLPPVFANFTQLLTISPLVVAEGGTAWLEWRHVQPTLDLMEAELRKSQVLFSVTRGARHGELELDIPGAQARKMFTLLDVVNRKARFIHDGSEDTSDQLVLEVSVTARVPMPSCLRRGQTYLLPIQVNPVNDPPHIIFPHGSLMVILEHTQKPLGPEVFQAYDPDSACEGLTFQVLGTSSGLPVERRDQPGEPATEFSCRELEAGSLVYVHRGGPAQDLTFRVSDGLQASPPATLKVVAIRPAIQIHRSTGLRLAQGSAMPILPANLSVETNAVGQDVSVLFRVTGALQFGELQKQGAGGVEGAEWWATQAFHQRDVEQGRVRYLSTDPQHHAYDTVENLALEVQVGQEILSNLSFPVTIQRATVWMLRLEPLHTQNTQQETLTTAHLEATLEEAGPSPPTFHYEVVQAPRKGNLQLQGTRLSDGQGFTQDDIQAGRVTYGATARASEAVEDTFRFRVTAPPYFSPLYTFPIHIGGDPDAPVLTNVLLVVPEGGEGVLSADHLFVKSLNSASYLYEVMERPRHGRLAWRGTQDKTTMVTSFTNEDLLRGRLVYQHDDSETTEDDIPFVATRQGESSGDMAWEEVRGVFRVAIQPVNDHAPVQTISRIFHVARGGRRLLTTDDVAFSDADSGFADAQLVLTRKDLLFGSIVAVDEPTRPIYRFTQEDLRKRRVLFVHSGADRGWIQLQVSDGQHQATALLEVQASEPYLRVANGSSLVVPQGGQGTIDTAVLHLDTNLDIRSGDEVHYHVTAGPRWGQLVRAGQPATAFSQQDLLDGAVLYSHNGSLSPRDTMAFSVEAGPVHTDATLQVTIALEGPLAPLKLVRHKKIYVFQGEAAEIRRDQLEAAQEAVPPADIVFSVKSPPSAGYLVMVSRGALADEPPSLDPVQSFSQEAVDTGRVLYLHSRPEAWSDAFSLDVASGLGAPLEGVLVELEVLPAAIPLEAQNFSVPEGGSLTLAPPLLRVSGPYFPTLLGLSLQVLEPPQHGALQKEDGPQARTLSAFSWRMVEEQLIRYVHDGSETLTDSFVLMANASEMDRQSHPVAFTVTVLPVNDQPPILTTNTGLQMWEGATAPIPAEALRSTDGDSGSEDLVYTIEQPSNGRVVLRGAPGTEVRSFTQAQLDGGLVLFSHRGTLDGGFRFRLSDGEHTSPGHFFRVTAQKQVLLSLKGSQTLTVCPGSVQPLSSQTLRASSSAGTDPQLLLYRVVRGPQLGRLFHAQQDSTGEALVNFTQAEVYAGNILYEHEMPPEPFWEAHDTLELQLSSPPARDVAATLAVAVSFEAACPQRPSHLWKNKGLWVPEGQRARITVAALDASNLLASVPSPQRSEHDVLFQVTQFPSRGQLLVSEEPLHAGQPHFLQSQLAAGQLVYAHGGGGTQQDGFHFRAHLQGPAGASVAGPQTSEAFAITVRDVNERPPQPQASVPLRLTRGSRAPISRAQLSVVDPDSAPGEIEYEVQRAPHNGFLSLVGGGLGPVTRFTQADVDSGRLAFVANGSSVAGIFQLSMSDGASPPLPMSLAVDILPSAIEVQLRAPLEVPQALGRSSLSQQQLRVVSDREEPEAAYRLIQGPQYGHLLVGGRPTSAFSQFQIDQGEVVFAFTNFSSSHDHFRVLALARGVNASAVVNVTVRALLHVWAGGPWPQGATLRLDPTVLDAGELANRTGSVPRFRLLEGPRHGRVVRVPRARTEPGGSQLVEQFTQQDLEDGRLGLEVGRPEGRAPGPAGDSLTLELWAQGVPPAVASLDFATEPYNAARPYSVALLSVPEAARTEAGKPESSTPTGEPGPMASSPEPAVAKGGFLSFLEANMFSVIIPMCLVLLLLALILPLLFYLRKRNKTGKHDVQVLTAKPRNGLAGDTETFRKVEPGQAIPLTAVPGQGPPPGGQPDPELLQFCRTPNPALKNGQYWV

The assay addresses T1, human melanoma chondroitin sulfate proteoglycan (MCSP) (human, UniProt Q6UVK1 30-2322).
T1 construct: whole, on cells; also called HMW-MAA; high molecular weight-melanoma-associated antigen
Nature of the assay: flow cytometry on A375 human melanoma cells. The protocol:
The purified, monomeric humanized antibody variants were tested for binding to the human HMW-MAA/MCSP antigen on the A375 human melanoma cell line, using a flow cytometry-based assay. 200,000 cells (in 180 μl FACS buffer (PBS containing 2% FCS and 5 mM EDTA) were transferred to 5 ml polystyrene tubes and 20 μl 10 fold concentrated anti-MCSP antibody (primary antibody) samples (1-5000 ng/ml final concentration) or PBS only were added. After gently mixing the samples, the tubes were incubated at 4° C. for 30 min in the dark. Subsequently, samples were washed twice with FACS buffer and pelleted at 300 g for 3 min. Supernatant was aspirated off and cells were taken up in 50 μl FACS buffer and 2 μl secondary antibody (anti-Fc-specific F(ab′)2-FITC fragments (Jackson Immuno Research Laboratories, USA)) was added and the tubes were incubated at 4° C. for 30 min. Samples were washed twice with FACS buffer and taken up in 500 μl of FACS buffer for analysis by Flow Cytometry. Binding was determined by plotting the geometric mean fluorescence against the antibody concentrations.
On the technique in general: In flow cytometry, cells or beads pass a laser one at a time.
B1: the binding result is given as “binds”.
As for B2, the entry is “binds”; as for B3, “no binding (tested: 1-5000 ng/ml final concentration)”.
As for B4, the entry is “binds”; as for B5, “binds”.
The entry for B6 is “binds”; for B7 it is “binds”.
B8: the binding result is on record as “binds”.
The entry for B9 is “binds”; for B10 it is “binds”.
For B11, the binding result is on record as “binds”.
The entry for B12 is “no binding (tested: 1-5000 ng/ml final concentration)”; for B13 it is “binds”; for B14 it is “no binding (tested: 1-5000 ng/ml final concentration)”.
As for B15, the entry is “no binding (tested: 1-5000 ng/ml final concentration)”; as for B16, “binds”.
The entry for B17 is “binds”; for B18 it is “binds”.
Take B19: the binding result is given as “no binding (tested: 1-5000 ng/ml final concentration)”.
